In patent US20100144645A1, “COMPOSITIONS AND METHODS FOR ENHANCING […] POTENCY OF […]-COMPOUNDS, A[…] ADVERSE SIDE EFFECTS, AND […] ABUSE” (SHIRE LLC, priority 2006, published 2010):
Counter-ions that a name gives are not always drawn. Residues, ends and D or L forms follow the SMILES beside them. *: point of attachment. X4 = CC(=O)Oc1ccc2c3c1OC1C(O*)=CCC4[C@@H](C2)N(C)CC[C@]314; X2 = CN1CC[C@]23c4c5ccc(O)c4O[C@H]2C(O*)=CC[C@H]3[C@H]1C5; X1 = COc1ccc2c3c1OC1C(O*)=CCC4[C@@H](C2)N(C)CC[C@]314; X3 = CN1CC[C@]23c4c5ccc(O)c4OC2C(O*)=CCC3[C@H]1C5

Assays:
[1] = Oral bioavailability of hydromorphone conjugates; settings: rats; for Oral AUC %: corrected value calculated based on the bioavailability of the control (HM); for Oral Cmax %: corrected value calculated based on the control (HM)
[2] = Intranasal bioavailability of hydromorphone conjugates; settings: rats; for IN AUC %: corrected value calculated based on the bioavailability of the control (HM); for IN Cmax %: corrected value calculated based on the control (HM)
[3] = Intranasal bioavailability of hydrocodone conjugates; settings: rats, relative to hydrocodone
[4] = stability 90 C., 20 min (V, BP, TW, BS) of hydrocodone conjugates; settings: for stability 90 C., 20 min BP: BP (abbreviation not defined); for stability 90 C., 20 min BS: BS (abbreviation not defined); for stability 90 C., 20 min TW: TW (abbreviation not defined); for stability 90 C., 20 min V: V (abbreviation not defined)
[5] = Oral bioavailability of hydrocodone conjugates (plasma hydrocodone plus hydromorphone); settings: for bioavailabiltty (% HC) oral AUC / bioavailabiltty (% HC) oral Cmax: rats, relative to hydrocodone

CN1CC[C@]23c4c5ccc(O)c4O[C@H]2C(OC(=O)[C@H](Cc2ccccc2)NC(=O)[C@H](Cc2ccccc2)NC(=O)[C@H](Cc2ccccc2)NC(=O)[C@H](CCC(=O)O)NC(=O)[C@@H](N)CCC(=O)O)=CC[C@H]3[C@H]1C5 [EEFFF-HM, Glu2-Phe3-Hydromorphone.Dihydrochloride] (H-EEFFF-X2)
Oral AUC % [1]: 79% | Oral Cmax % [1]: 78% | IN AUC % [2]: 52% | IN Cmax % [2]: 57%

CC[C@H](C)[C@H](NC(=O)[C@H](CCC(=O)O)NC(=O)[C@@H](N)CCC(=O)O)C(=O)OC1=CC[C@H]2[C@H]3Cc4ccc(O)c5c4[C@@]2(CCN3C)[C@H]1O5 [EEI-HM]
Oral AUC % [1]: 56% | Oral Cmax % [1]: 73% | IN AUC % [2]: 59% | IN Cmax % [2]: 88%

CC(C)C[C@H](NC(=O)[C@H](CCC(=O)O)NC(=O)[C@@H](N)CCC(=O)O)C(=O)OC1=CC[C@H]2[C@H]3Cc4ccc(O)c5c4[C@@]2(CCN3C)[C@H]1O5 [EEL-HM]
Oral AUC % [1]: 27% | Oral Cmax % [1]: 49% | IN AUC % [2]: 84% | IN Cmax % [2]: 98%

CC(C)[C@H](NC(=O)[C@H](CCC(=O)O)NC(=O)[C@@H](N)CCC(=O)O)C(=O)OC1=CC[C@H]2[C@H]3Cc4ccc(O)c5c4[C@@]2(CCN3C)[C@H]1O5 [EEV-HM]
Oral AUC % [1]: 21% | Oral Cmax % [1]: 50% | IN AUC % [2]: 31% | IN Cmax % [2]: 70%

CC[C@H](C)[C@H](NC(=O)[C@H](Cc1ccccc1)NC(=O)[C@@H](N)Cc1ccccc1)C(=O)OC1=CC[C@H]2[C@H]3Cc4ccc(O)c5c4[C@@]2(CCN3C)[C@H]1O5 [FFI-HM]
Oral AUC % [1]: 18% | Oral Cmax % [1]: 47% | IN AUC % [2]: 79% | IN Cmax % [2]: 92%

CC(C)C[C@H](NC(=O)[C@H](Cc1ccccc1)NC(=O)[C@@H](N)Cc1ccccc1)C(=O)OC1=CC[C@H]2[C@H]3Cc4ccc(O)c5c4[C@@]2(CCN3C)[C@H]1O5 [FFL-HM]
Oral AUC % [1]: 11% | Oral Cmax % [1]: 24% | IN AUC % [2]: 92% | IN Cmax % [2]: 96%

CC(C)[C@H](NC(=O)[C@H](Cc1ccccc1)NC(=O)[C@@H](N)Cc1ccccc1)C(=O)OC1=CC[C@H]2[C@H]3Cc4ccc(O)c5c4[C@@]2(CCN3C)[C@H]1O5 [FFV-HM]
Oral AUC % [1]: 8% | Oral Cmax % [1]: 36% | IN AUC % [2]: 98% | IN Cmax % [2]: 103%

CC[C@H](C)[C@H](NC(=O)CNC(=O)CN)C(=O)OC1=CCC2[C@H]3Cc4ccc(O)c5c4[C@@]2(CCN3C)C1O5 (stereo partly shown) [GGI-HM]
Oral AUC % [1]: 17% | Oral Cmax % [1]: 32% | IN AUC % [2]: 24% | IN Cmax % [2]: 66%

CC(C)C[C@H](NC(=O)CNC(=O)CN)C(=O)OC1=CCC2[C@H]3Cc4ccc(O)c5c4[C@@]2(CCN3C)C1O5 (stereo partly shown) [GGL-HM]
Oral AUC % [1]: 22% | Oral Cmax % [1]: 43% | IN AUC % [2]: 52% | IN Cmax % [2]: 85%

CC(C)[C@H](NC(=O)CNC(=O)CN)C(=O)OC1=CCC2[C@H]3Cc4ccc(O)c5c4[C@@]2(CCN3C)C1O5 (stereo partly shown) [GGV-HM]
Oral AUC % [1]: 53% | Oral Cmax % [1]: 63% | IN AUC % [2]: 51% | IN Cmax % [2]: 73%

CC[C@H](C)[C@H](NC(=O)[C@H](CC(=O)O)NC(=O)[C@H](CC(=O)O)NC(=O)[C@H](CCC(=O)O)NC(=O)[C@@H](N)CCC(=O)O)C(=O)OC1=CCC2[C@H]3Cc4ccc(OC)c5c4[C@@]2(CCN3C)C1O5 (stereo partly shown) [Glu2-Asp2-Ile-HC] (H-EEDDI-X1)
bioavailabiltty (% HC) IN AUC [3]: 53 % HC | bioavailabiltty (% HC) IN Cmax [3]: 81 % HC | stability 90 C., 20 min BP [4]: 77 | stability 90 C., 20 min BS [4]: 100 | stability 90 C., 20 min TW [4]: 15 | stability 90 C., 20 min V [4]: 1 | bioavailabiltty (% HC) oral AUC [5]: 108 % HC | bioavailabiltty (% HC) oral Cmax [5]: 129 % HC | Oral:IN Index AUC ([5]; ratio of oral to IN AUC (% HC)): 2.04 | Oral:IN Index Cmax ([5]; ratio of oral to IN Cmax (% HC)): 1.59

CC[C@H](C)[C@H](NC(=O)CNC(=O)CNC(=O)[C@H](CCC(=O)O)NC(=O)[C@@H](N)CCC(=O)O)C(=O)OC1=CCC2[C@H]3Cc4ccc(OC)c5c4[C@@]2(CCN3C)C1O5 (stereo partly shown) [Glu2-Gly2-Ile-HC, Glu2-Gly2-Ile-Hydrocodone] (H-EEGGI-X1)
bioavailabiltty (% HC) IN AUC [3]: 50 % HC | bioavailabiltty (% HC) IN Cmax [3]: 56 % HC | stability 90 C., 20 min BP [4]: 99 | stability 90 C., 20 min BS [4]: 99 | stability 90 C., 20 min TW [4]: 23 | stability 90 C., 20 min V [4]: 0 | bioavailabiltty (% HC) oral AUC [5]: 81 % HC | bioavailabiltty (% HC) oral Cmax [5]: 77 % HC

CC[C@H](C)[C@H](NC(=O)CNC(=O)CN)C(=O)OC1=CCC2[C@H]3Cc4ccc(OC)c5c4[C@@]2(CCN3C)C1O5 (stereo partly drawn) [Gly-Gly-Ile-HC]
stability 90 C., 20 min BP [4]: 100 | stability 90 C., 20 min BS [4]: 100 | stability 90 C., 20 min TW [4]: 93 | stability 90 C., 20 min V [4]: 0

CC[C@H](C)[C@H](NC(=O)[C@H](CCCCN)NC(=O)[C@@H](N)CCCCN)C(=O)OC1=CCC2[C@H]3Cc4ccc(O)c5c4[C@@]2(CCN3C)C1O5 (stereo partly shown) [KKI-HM]
Oral AUC % [1]: 24% | Oral Cmax % [1]: 56% | IN AUC % [2]: 68% | IN Cmax % [2]: 85%

CC(C)C[C@H](NC(=O)[C@H](CCCCN)NC(=O)[C@@H](N)CCCCN)C(=O)OC1=CCC2[C@H]3Cc4ccc(O)c5c4[C@@]2(CCN3C)C1O5 (stereo partly shown) [KKL-HM]
Oral AUC % [1]: 24% | Oral Cmax % [1]: 50% | IN AUC % [2]: 87% | IN Cmax % [2]: 96%

CC(C)[C@H](NC(=O)[C@H](CCCCN)NC(=O)[C@@H](N)CCCCN)C(=O)OC1=CCC2[C@H]3Cc4ccc(O)c5c4[C@@]2(CCN3C)C1O5 (stereo partly shown) [KKV-HM]
Oral AUC % [1]: 43% | Oral Cmax % [1]: 60% | IN AUC % [2]: 75% | IN Cmax % [2]: 89%

CC[C@H](C)[C@H](NC(=O)[C@@H]1CCCN1C(=O)[C@@H]1CCCN1)C(=O)OC1=CCC2[C@H]3Cc4ccc(O)c5c4[C@@]2(CCN3C)C1O5 (stereo partly shown) [PPI-HM]
Oral AUC % [1]: 21% | Oral Cmax % [1]: 60% | IN AUC % [2]: 77% | IN Cmax % [2]: 95%

CC(C)C[C@H](NC(=O)[C@@H]1CCCN1C(=O)[C@@H]1CCCN1)C(=O)OC1=CCC2[C@H]3Cc4ccc(O)c5c4[C@@]2(CCN3C)C1O5 (stereo partly shown) [PPL-HM]
Oral AUC % [1]: 22% | Oral Cmax % [1]: 45% | IN AUC % [2]: 53% | IN Cmax % [2]: 70%

CC(C)[C@H](NC(=O)[C@@H]1CCCN1C(=O)[C@@H]1CCCN1)C(=O)OC1=CCC2[C@H]3Cc4ccc(O)c5c4[C@@]2(CCN3C)C1O5 (stereo partly shown) [PPV-HM]
Oral AUC % [1]: 24% | Oral Cmax % [1]: 55% | IN AUC % [2]: 71% | IN Cmax % [2]: 101%

CC[C@H](C)[C@H](NC(=O)[C@@H]1CCCN1C(=O)[C@@H]1CCCN1)C(=O)OC1=CCC2[C@H]3Cc4ccc(OC)c5c4[C@@]2(CCN3C)C1O5 (stereo partly drawn) [Pro-Pro-Ile-HC]
stability 90 C., 20 min BP [4]: 16 | stability 90 C., 20 min BS [4]: 100 | stability 90 C., 20 min TW [4]: 70 | stability 90 C., 20 min V [4]: 0

CC[C@H](C)[C@H](NC(=O)[C@@H]1CCCN1C(=O)[C@@H]1CCCN1C(=O)[C@H](Cc1ccc(O)cc1)NC(=O)[C@@H](N)Cc1ccc(O)cc1)C(=O)OC1=CCC2[C@H]3Cc4ccc(OC)c5c4[C@@]2(CCN3C)C1O5 (stereo partly shown) [Tyr2-Pro2-Ile-HC] (H-YYPPI-X1)
stability 90 C., 20 min BP [4]: 100 | stability 90 C., 20 min BS [4]: 100 | stability 90 C., 20 min TW [4]: 83 | stability 90 C., 20 min V [4]: 0 | bioavailabiltty (% HC) oral AUC [5]: 218 % HC | bioavailabiltty (% HC) oral Cmax [5]: 213 % HC

CC[C@H](C)[C@H](NC(=O)[C@H](Cc1ccccc1)NC(=O)[C@H](Cc1ccccc1)NC(=O)[C@H](Cc1ccc(O)cc1)NC(=O)[C@@H](N)Cc1ccc(O)cc1)C(=O)OC1=CCC2[C@H]3Cc4ccc(OC(C)=O)c5c4[C@@]2(CCN3C)C1O5 (stereo partly shown) [YYFFI-HM-OAc] (H-YYFFI-X4)
Oral AUC % [1]: 29% | Oral Cmax % [1]: 40% | IN AUC % [2]: 59% | IN Cmax % [2]: 72%

CC[C@H](C)[C@H](NC(=O)[C@H](Cc1ccccc1)NC(=O)[C@H](Cc1ccccc1)NC(=O)[C@H](Cc1ccc(O)cc1)NC(=O)[C@@H](N)Cc1ccc(O)cc1)C(=O)OC1=CCC2[C@H]3Cc4ccc(O)c5c4[C@@]2(CCN3C)C1O5 (stereo partly shown) [YYFFI-HM] (H-YYFFI-X3)
Oral AUC % [1]: 40% | Oral Cmax % [1]: 52% | IN AUC % [2]: 4% | IN Cmax % [2]: 7%

CC[C@H](C)[C@H](NC(=O)[C@H](Cc1ccc(O)cc1)NC(=O)[C@@H](N)Cc1ccc(O)cc1)C(=O)OC1=CCC2[C@H]3Cc4ccc(O)c5c4[C@@]2(CCN3C)C1O5 (stereo partly shown) [YYI-HM]
Oral AUC % [1]: 32% | Oral Cmax % [1]: 66% | IN AUC % [2]: 88% | IN Cmax % [2]: 86%

CC(C)C[C@H](NC(=O)[C@H](Cc1ccc(O)cc1)NC(=O)[C@@H](N)Cc1ccc(O)cc1)C(=O)OC1=CCC2[C@H]3Cc4ccc(O)c5c4[C@@]2(CCN3C)C1O5 (stereo partly shown) [YYL-HM]
Oral AUC % [1]: 12% | Oral Cmax % [1]: 30% | IN AUC % [2]: 74% | IN Cmax % [2]: 75%

CC(C)[C@H](NC(=O)[C@H](Cc1ccc(O)cc1)NC(=O)[C@@H](N)Cc1ccc(O)cc1)C(=O)OC1=CCC2[C@H]3Cc4ccc(O)c5c4[C@@]2(CCN3C)C1O5 (stereo partly shown) [YYV-HM]
Oral AUC % [1]: 30% | Oral Cmax % [1]: 53% | IN AUC % [2]: 73% | IN Cmax % [2]: 73%

(d)-Lys-(1)-Lys-Ile-Hydrocodone [(d)Lys(I)Lys-Ile-HC]
stability 90 C., 20 min BP [4]: 69 | stability 90 C., 20 min BS [4]: 100 | stability 90 C., 20 min TW [4]: 74 | stability 90 C., 20 min V [4]: 0

Gly-Gly-Leu-Hydrocodone [Gly-Gly-Leu-HC]
stability 90 C., 20 min BP [4]: 100 | stability 90 C., 20 min BS [4]: 100 | stability 90 C., 20 min TW [4]: 85 | stability 90 C., 20 min V [4]: 1
